Literature values as cited in paper PMC10531186.

Molecular target: uPA (Mus musculus) (UniProt P06869)
Chain of UniProt P06869 (P06869 21-433): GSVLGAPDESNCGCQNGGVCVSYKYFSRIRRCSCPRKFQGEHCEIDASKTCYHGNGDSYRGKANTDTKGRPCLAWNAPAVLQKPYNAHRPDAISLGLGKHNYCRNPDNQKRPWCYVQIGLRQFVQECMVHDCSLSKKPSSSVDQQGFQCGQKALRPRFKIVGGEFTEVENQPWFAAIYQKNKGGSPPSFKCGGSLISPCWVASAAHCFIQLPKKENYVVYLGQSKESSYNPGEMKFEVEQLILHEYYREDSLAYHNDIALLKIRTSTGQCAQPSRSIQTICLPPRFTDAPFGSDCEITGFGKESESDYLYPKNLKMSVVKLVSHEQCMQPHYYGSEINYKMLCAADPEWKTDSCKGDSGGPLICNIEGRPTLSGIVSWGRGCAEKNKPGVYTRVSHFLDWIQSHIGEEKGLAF

For mupain-1, the Ki is given as 185 nM.
